According to patent US20130142802A1:

Columns and labels:
[1] = molecular target: native FGFR2-IIIc on rat prostate cancer cell line AT3B-1 (rat) (UniProt F1LNW0); assay: flow cytometry on rat prostate cancer cell line AT3B-1; marker M1 9-7844, 1840 of 15000 events; the panel without primary antibody also prints 12.27
[2] = molecular target: native FGFR2-IIIc on rat prostate cancer cell line AT3B-1 (rat) (UniProt F1LNW0); assay: flow cytometry on AT3B-1 cells; no-primary control 11%

human IgG (negative control) (antibody)
%Gated (marker M1) [1]: 12.3% | % positive staining of the cell population [2]: 12%
